Measured values published in the supplement of paper PMC10724198.
± gives the standard deviation of the averaged measurements.
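Also: PSI is a weighted mean of sequencing reads over stability bins, variants kept only with over 10 reads, mCherry proximal and sfGFP distal, peptide attached via GGGS linker.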

The sequences below were run on Saccharomyces cerevisiae (assay: protein stability index of tFT-peptide fusion (C-terminal peptide) (PSI (0-1 scale)); higher = more stable (slower turnover)). Conditions: genetic background: wild type; temperature: 30 C.
For PSILPPPSSCPP, the protein stability index was 0.767 ± 0.041. PSIMLSSLPPPP was tested, and the protein stability index was 0.696 ± 0.065. PSKGKYKKMGPR was tested, and the protein stability index was 0.661 ± 0.076. With PSLLPLLPLPPP the protein stability index was 0.685 ± 0.038. PSLLPSRPPRSI was tested, and the protein stability index was 0.648 ± 0.034. Sequence PSLPCPVLVFSL has a protein stability index of 0.462 ± 0.054. PSLPPLPPAPLL was tested, and the protein stability index was 0.726 ± 0.039. For PSLSSPQLLLTL, the protein stability index was 0.685 ± 0.01. In the case of PSNDNTMIPILE, the protein stability index is reported as 0.656 ± 0.04. With PSPALLILPPYS the protein stability index was 0.672 ± 0.016. For PSPFDTPPSSGQ, the protein stability index was 0.722 ± 0.026. For PSPFPLPLSFAR, the protein stability index was 0.538 ± 0.047. In the case of PSPHTPPHTFLL, the protein stability index is reported as 0.755 ± 0.0022. Work on PSPLAPPLPPPS yielded a protein stability index of 0.701 ± 0.015. PSPLLSPPPPRP showed a protein stability index of 0.706 ± 0.024. PSPLPSSGHPPP gave a protein stability index of 0.6206 ± 0.0046. In the case of PSPLSLIPSSRP, the protein stability index is reported as 0.663 ± 0.095. For PSPMHPSAHFST, the protein stability index was 0.67613 ± 0.00039. Sequence PSPPAPFPLVPT has a protein stability index of 0.607 ± 0.032. In the case of PSPPAPLSLLLP, the protein stability index is reported as 0.645 ± 0.074. PSPPAQSASLFF was tested, and the protein stability index was 0.663 ± 0.02. Sequence PSPPLPPPPSPY has a protein stability index of 0.72 ± 0.1. For PSPPPAVLPPPP, the protein stability index was 0.693 ± 0.039. With PSPPPLLAPSPL the protein stability index was 0.683 ± 0.096. Sequence PSPPPLLTRPLP has a protein stability index of 0.713 ± 0.1. PSPPPPHPSALT gave a protein stability index of 0.648 ± 0.012. Sequence PSPPPPPPHPAP has a protein stability index of 0.694 ± 0.035. With PSPPPPPRTFPN the protein stability index was 0.6756 ± 0.0064. PSPPPSPPPRHF showed a protein stability index of 0.6924 ± 0.0046. Sequence PSPPPTPPPPTP has a protein stability index of 0.793 ± 0.096. In the case of PSPPTPLPSRLF, the protein stability index is reported as 0.7829 ± 0.0037. Sequence PSPRPPPPPPSA has a protein stability index of 0.705 ± 0.009. PSPSGRGLAIAP showed a protein stability index of 0.688 ± 0.013. For PSPSPPPPLSPP, the protein stability index was 0.698 ± 0.045. PSPSTAPPRDQG was tested, and the protein stability index was 0.724 ± 0.016. Work on PSPSTSLPPSPP yielded a protein stability index of 0.684 ± 0.042. Work on PSPSYAPARHQA yielded a protein stability index of 0.651 ± 0.063. PSPTIPSPPPPP showed a protein stability index of 0.615 ± 0.011. Work on PSPTLGPVSFPH yielded a protein stability index of 0.703 ± 0.014. Work on PSPYFHLFGTQS yielded a protein stability index of 0.77 ± 0.027. In the case of PSQHVHTSPLYS, the protein stability index is reported as 0.695 ± 0.022. For PSQPYPSSQYIL, the protein stability index was 0.73 ± 0.047. In the case of PSQRHQRPHREP, the protein stability index is reported as 0.657 ± 0.052. Work on PSRASGPYPRLS yielded a protein stability index of 0.701 ± 0.019. For PSRDPPAGPRAR, the protein stability index was 0.684 ± 0.048. Work on PSRLSLLWVNPP yielded a protein stability index of 0.8 ± 0.081. In the case of PSRPRPRRRRQA, the protein stability index is reported as 0.751 ± 0.073. In the case of PSRRAPQSRPSQ, the protein stability index is reported as 0.733 ± 0.098. Work on PSRRHGFRLILT yielded a protein stability index of 0.679 ± 0.019. PSRRPLPHPPPP gave a protein stability index of 0.654 ± 0.045. PSRVPTPLPHFT gave a protein stability index of 0.737 ± 0.049. PSSCLPAHLRPP was tested, and the protein stability index was 0.605 ± 0.013. PSSCSLLPLCLG showed a protein stability index of 0.663 ± 0.065. Work on PSSHHGNQTTRK yielded a protein stability index of 0.826 ± 0.14. PSSLPSTPPSPP showed a protein stability index of 0.745 ± 0.019. For PSSPLPLSVPPL, the protein stability index was 0.655 ± 0.11. In the case of PSSPPAPLAPHS, the protein stability index is reported as 0.731 ± 0.067. With PSSPPLPLPALP the protein stability index was 0.723 ± 0.04. PSSRFLFFCSFF gave a protein stability index of 0.677 ± 0.033. Work on PSSSLAPPPGRL yielded a protein stability index of 0.572 ± 0.038. PSTDARRQRLRR showed a protein stability index of 0.721 ± 0.049. PSTLLPSLRFPP showed a protein stability index of 0.654 ± 0.056. With PSTPPGPPPASH the protein stability index was 0.758 ± 0.011. For PSTPSPSCAPPS, the protein stability index was 0.7087 ± 0.0017. PSTSCQRLLTLT showed a protein stability index of 0.639 ± 0.018. PSTVSPFRPPIT gave a protein stability index of 0.711 ± 0.039. Work on PSVLPPPSPASY yielded a protein stability index of 0.668 ± 0.094. Work on PTFVQGVVLGRG yielded a protein stability index of 0.702 ± 0.086. Sequence PTLPACFCPPAP has a protein stability index of 0.639 ± 0.097. In the case of PTLSSPHPPNNY, the protein stability index is reported as 0.689 ± 0.021. Work on PTMGRRPGRGGA yielded a protein stability index of 0.6987 ± 0.00073. PTPPPALPPPPL gave a protein stability index of 0.6994 ± 0.0054. PTPPPQPTPHTP was tested, and the protein stability index was 0.705 ± 0.035. Work on PTPPPRPPLSPP yielded a protein stability index of 0.692 ± 0.046. PTPPRPGPIITF gave a protein stability index of 0.699 ± 0.031. For PTPTAPEPIHPS, the protein stability index was 0.61 ± 0.0025. With PTPTNLLPPRKY the protein stability index was 0.6504 ± 0.0044. In the case of PTRPAMILPNRY, the protein stability index is reported as 0.698 ± 0.049. PTRPPRPRAGPR was tested, and the protein stability index was 0.742 ± 0.0077. PTSFAPSPPLPR was tested, and the protein stability index was 0.741 ± 0.025. In the case of PTTLTTPTPPHR, the protein stability index is reported as 0.7161 ± 0.0022. In the case of PTYTPAFPPVSS, the protein stability index is reported as 0.699 ± 0.018. For PVDGGAGPEVKG, the protein stability index was 0.641 ± 0.1. With PVETVRCCLACP the protein stability index was 0.64643 ± 0.00047. For PVFPPTPLSPRP, the protein stability index was 0.571 ± 0.077. Sequence PVGDWPRGKGAD has a protein stability index of 0.684 ± 0.13. With PVLYPPPPFPPY the protein stability index was 0.747 ± 0.0095. In the case of PVPIPCPIPPPT, the protein stability index is reported as 0.703 ± 0.0062. With PVPLLPLSFSLL the protein stability index was 0.736 ± 0.064. PVPNPPPAPRSS showed a protein stability index of 0.698 ± 0.062. PVPPPPCPPLPP showed a protein stability index of 0.683 ± 0.024. For PVPRNRQRWREP, the protein stability index was 0.663 ± 0.017. PVPRVPLYFPLV showed a protein stability index of 0.675 ± 0.017. PVRLGAGGGCRP was tested, and the protein stability index was 0.693 ± 0.02. With PVRSPPPLPSPP the protein stability index was 0.653 ± 0.037. PVSSFQHSLPWL was tested, and the protein stability index was 0.708 ± 0.03. PVSSLHFPLPGF was tested, and the protein stability index was 0.677 ± 0.027. With PVSSPLVFLLSI the protein stability index was 0.625 ± 0.045. Work on PVSTINLNIQST yielded a protein stability index of 0.836 ± 0.087. With PVTMWAGGKYYV the protein stability index was 0.718 ± 0.088. PVWLLASSLADL showed a protein stability index of 0.722 ± 0.039. For PYSLRSTASSFP, the protein stability index was 0.63 ± 0.12. PYSPPAHLLSLL was tested, and the protein stability index was 0.878 ± 0.061. QASFPRPSGRAS showed a protein stability index of 0.7026 ± 0.0054. QAVPRAAHLHPL showed a protein stability index of 0.66 ± 0.11. QCAPVFIAVCRL showed a protein stability index of 0.681 ± 0.14. QCIQQNVSSSRA showed a protein stability index of 0.646 ± 0.014. In the case of QCLFPVAYYLTP, the protein stability index is reported as 0.657 ± 0.0097. For QDHIGSTEGYKH, the protein stability index was 0.663 ± 0.074. Sequence QDSANLSPSFPF has a protein stability index of 0.724 ± 0.048. Sequence QEESRARKGTQT has a protein stability index of 0.627 ± 0.034. Sequence QEKKKVNKKENK has a protein stability index of 0.737 ± 0.045. For QEKSLSHTQRYR, the protein stability index was 0.762 ± 0.072. For QFERSVFLANAL, the protein stability index was 0.679 ± 0.023. For QFRRKGMITECK, the protein stability index was 0.7161 ± 0.0029. With QFSPPLSLAPLP the protein stability index was 0.783 ± 0.05. Sequence QFSRSFHSLPPT has a protein stability index of 0.683 ± 0.022. QFWVICTRGSEN was tested, and the protein stability index was 0.694 ± 0.029. QGGGGGGRSGWR was tested, and the protein stability index was 0.6854 ± 0.0061. In the case of QGRCHSRARMTP, the protein stability index is reported as 0.731 ± 0.046. With QGSWLRSVNLEY the protein stability index was 0.617 ± 0.092. QGTCSQSIEAHF gave a protein stability index of 0.706 ± 0.14. For QHIKNARKKKGE, the protein stability index was 0.657 ± 0.0073. With QIEQQKHKQPLI the protein stability index was 0.6859 ± 0.0024. For QIPEYGGQGVNV, the protein stability index was 0.6935 ± 0.0047. Sequence QIYKISKKKKQK has a protein stability index of 0.676 ± 0.055. For QIYRMKNRYNKS, the protein stability index was 0.7 ± 0.038. QKATRHRTRPRR gave a protein stability index of 0.688 ± 0.12. In the case of QKEGGRENETRT, the protein stability index is reported as 0.6906 ± 0.0053. Work on QKHGARISSQKK yielded a protein stability index of 0.703 ± 0.012. In the case of QKKIKKPKSKKH, the protein stability index is reported as 0.736 ± 0.031. In the case of QKKKKTTVKKRQ, the protein stability index is reported as 0.671 ± 0.021. Work on QKKPEMLNKKSY yielded a protein stability index of 0.639 ± 0.015. QKKQKIKYRSKN was tested, and the protein stability index was 0.714 ± 0.053. Sequence QKNKKKKQKKEK has a protein stability index of 0.717 ± 0.05. With QKPVQGICQEAN the protein stability index was 0.628 ± 0.035. With QKTSPWRQRGRL the protein stability index was 0.778 ± 0.047. With QLDPLRPASEFA the protein stability index was 0.602 ± 0.043. QLILVGYCMLSV showed a protein stability index of 0.5612 ± 0.0017. In the case of QLLCMSEPFVRE, the protein stability index is reported as 0.699 ± 0.057. For QNEKSKQCIKQT, the protein stability index was 0.6759 ± 0.0019. In the case of QNKTKDQKQRRQ, the protein stability index is reported as 0.697 ± 0.028. Work on QNNTRQQRKTPR yielded a protein stability index of 0.683 ± 0.022. For QNSDDFLITDTY, the protein stability index was 0.643 ± 0.1. Sequence QPGGTHDLGGTG has a protein stability index of 0.61 ± 0.012. In the case of QPGPKTTYLEEA, the protein stability index is reported as 0.686 ± 0.014. For QPPLPTRLNHRQ, the protein stability index was 0.651 ± 0.045. Work on QPQRSRLRQQNT yielded a protein stability index of 0.734 ± 0.081. QPRVSTSGHSAR showed a protein stability index of 0.722 ± 0.016. QPYHSSPSPRTI showed a protein stability index of 0.717 ± 0.073. For QQCVTGKSFYGI, the protein stability index was 0.856 ± 0.14. Work on QQLPPARLPRRP yielded a protein stability index of 0.745 ± 0.012. With QRFVKIRGLEKI the protein stability index was 0.693 ± 0.026. In the case of QRGCEAKRGGEG, the protein stability index is reported as 0.628 ± 0.014. QRSQASIPGQEV gave a protein stability index of 0.579 ± 0.091. QSAPPPLPPRRR gave a protein stability index of 0.69 ± 0.03. Work on QSARMRRKSNLP yielded a protein stability index of 0.674 ± 0.028. QSLITVETRIGS gave a protein stability index of 0.651 ± 0.045. QSPATIPFASHR showed a protein stability index of 0.731 ± 0.014. Work on QSPRRQLEGKLE yielded a protein stability index of 0.619 ± 0.046.
